We go through three substances from article PMC3053351.

Holding throughout (assay): flow cytometry on cells
On the technique in general: In flow cytometry, cells or beads pass a laser one at a time.

The target in assay [1] is Mamu-KIR3DL05*003 (rhesus macaque).
Assay [2] deals with Mamu-KIR3DL05*005 (rhesus macaque).
Assay [3] addresses Mamu-KIR3DL05*008 (rhesus macaque).
The target in assay [4] is Mamu-KIR3DL05*010 (rhesus macaque).
The target in assay [5] is Mamu-KIR3DL05*001 (rhesus macaque).
In assay [6] the target is Mamu-KIR3DL05*004 (rhesus macaque).

As to “Mamu-A1*00201 tetramer folded with SIV Env_(788-795) RY8 (from UniProt P61769 21-119) (peptide-MHC)”, the MFI of tetramer staining divided by MFI of HA staining was determined as 0.06 in assay [1], 0.03 in assay [2], 0.07 in assay [3] and 0.07 in assay [4].
On to “Mamu-A1*00201 tetramer folded with SIV Gag_(71-79) GY9 (from UniProt P61769 21-119) (peptide-MHC)”, for which the MFI of tetramer staining divided by MFI of HA staining was found to be 0.02 in assay [5]; 1.57 in assay [1]; 1.99 in assay [6]; 0.55 in assay [2]; 1.49 in assay [3]; 1.55 in assay [4].
On to “Mamu-A1*00201 tetramer folded with SIV Nef_(159-167) YY9 (from UniProt P61769 21-119) (peptide-MHC)”, for which the MFI of tetramer staining divided by MFI of HA staining in assay [1] stood at 0.03; in assay [6], 0.13; in assay [2], 0.01; in assay [3], 0.03; in assay [4], 0.03.
